The record followed here is patent publication US20140235820A1, “METHODS AND COMPOSITIONS FOR MODULATING THE Wnt PATHWAY” (Genentech, Inc., priority 2010, published 2014).

Substitutions are numbered along the chain they refer to. Names and notes keep the numbering of the source.

Assay [1] concerns the target T1, LRP6 E1E4 (Homo sapiens, UniProt O75581).
T1 construct: construct E1E4-amino acids A20-Q1253 of LPR6; made in house; host or cells: Tni insect cells (baculovirus, secreted)
T1 sequence (O75581 20-1253): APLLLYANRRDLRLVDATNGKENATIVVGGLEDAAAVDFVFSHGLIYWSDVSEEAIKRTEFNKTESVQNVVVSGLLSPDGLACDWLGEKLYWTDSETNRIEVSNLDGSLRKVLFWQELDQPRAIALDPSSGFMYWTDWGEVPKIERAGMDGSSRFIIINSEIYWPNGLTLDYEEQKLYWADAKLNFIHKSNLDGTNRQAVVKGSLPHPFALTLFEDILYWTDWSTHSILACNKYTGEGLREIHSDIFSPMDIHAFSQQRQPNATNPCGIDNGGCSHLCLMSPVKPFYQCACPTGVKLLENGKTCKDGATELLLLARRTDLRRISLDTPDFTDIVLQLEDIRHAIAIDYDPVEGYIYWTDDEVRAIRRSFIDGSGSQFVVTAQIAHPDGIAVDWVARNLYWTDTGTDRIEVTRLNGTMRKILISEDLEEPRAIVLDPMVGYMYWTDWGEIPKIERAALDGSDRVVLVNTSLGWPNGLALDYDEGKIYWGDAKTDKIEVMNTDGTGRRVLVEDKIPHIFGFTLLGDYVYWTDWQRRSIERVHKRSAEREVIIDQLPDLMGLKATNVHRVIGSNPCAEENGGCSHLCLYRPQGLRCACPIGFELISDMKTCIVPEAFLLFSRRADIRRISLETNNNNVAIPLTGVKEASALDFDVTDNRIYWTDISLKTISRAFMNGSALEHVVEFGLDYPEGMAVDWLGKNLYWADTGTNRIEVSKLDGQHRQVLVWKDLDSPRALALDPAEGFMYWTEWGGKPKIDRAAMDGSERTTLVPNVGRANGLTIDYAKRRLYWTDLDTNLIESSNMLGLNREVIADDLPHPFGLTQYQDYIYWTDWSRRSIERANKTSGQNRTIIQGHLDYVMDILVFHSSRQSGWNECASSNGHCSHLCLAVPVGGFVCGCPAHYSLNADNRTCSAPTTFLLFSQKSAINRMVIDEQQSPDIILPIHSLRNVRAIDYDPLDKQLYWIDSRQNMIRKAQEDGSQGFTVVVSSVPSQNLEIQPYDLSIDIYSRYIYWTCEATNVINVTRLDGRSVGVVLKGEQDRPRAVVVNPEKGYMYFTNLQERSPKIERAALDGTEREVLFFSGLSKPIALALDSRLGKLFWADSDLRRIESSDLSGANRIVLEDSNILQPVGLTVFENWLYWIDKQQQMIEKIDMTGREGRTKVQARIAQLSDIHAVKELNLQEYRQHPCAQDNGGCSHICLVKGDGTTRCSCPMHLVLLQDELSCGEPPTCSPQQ
The assay is described as follows: Biolayer interferometry binding to LRP6 E1E4. As for the experimental part: Binding kinetics were measured by biolayer interferometry using an Octet Red instrument (ForteBio) as previously described (11). Streptavidin (SA) biosensors were loaded with biotinylated hLRP6 in 50 mMTris, pH 8, 300 mM NaCl, 5% (v/v) glycerol, and 0.05% (w/v) Triton X-100. The loaded biosensors were washed in the same buffer before carrying out association and dissociation measurements for the indicated times. The Kd of each interaction was determined using steady state-analysis through the Octet Red software v6.3. Each reported value represents an average of three or more experiments at different concentrations, with a fitted experimental curve for which the square of the correlation coefficient (R^2) is above 0.96.
The interaction of the different Dkks and sclerostin with various domains of LRP6 was measured using a biolayer interferometry assay (11). Purified receptors contained individual β-propeller-EGF-like units (E1, E2, or E4), two β-propellers (E1E2 or E3E4), or four β-propellers (E1E4))—as follows:
Human LRP6: construct E1E4-amino acids A20-Q1253 of LPR6; construct E1E2-amino acids A20-E631 of LPR6; construct E3E4 amino acids E631-Q1253 of LPR6; construct E1-amino acids A20-D325 of LPR6; construct E2-amino acids […]-E631 of LPR6; construct E4-T933-Q1253. The individual LRP6 β-propeller E3 could not be expressed.
On the technique in general: Biolayer interferometry detects binding as a change in optical thickness at a sensor tip.

Assay [2] relates to Wnt1-dependent signaling. The assay is described as follows: Wnt-dependent TOPbrite luciferase reporter assay, cells transfected with Wnt1. It is filed as cell-based. Conditions: cells stably transfected with reporter, transiently with Wnt1. As for the experimental part: FIG. 12. Induction of a Wnt/β-catenin reporter in the presence or absence of wild-type and mutant inhibitors. Cells were transfected by Wnt1 (binds to LRP6 E1E2). Dkk1 and sclerostin variants, or the control inhibitor Fz8 CRD, were used at the indicated doses.
Wnt signaling was assessed either in mouse fibroblast L-cells or in HEK293s cells. The luciferase reporter assay in 293 cells was performed as described (52). The mouse fibroblast L-cell imaging assay was conducted essentially as described(53). Cells were treated with Wnt3a, Fz8 CRD ((US Patent Publication 20080299136; (54), LRP6, or Dkk1, or combinations of these proteins, as indicated and processed after an additional 6 h at 37° C./5% CO2.
To test whether the observed effects on binding between purified proteins were relevant to cellular signaling, Dkk1 and sclerostin activities were tested further in a Wnt-dependent TOPbrite luciferase reporter assay (52). Cells stably transfected with reporter were transfected transiently with Wnt1. The Wnt-transfected cells were treated with purified Dkk1 or sclerostin variants, and the effect on reporter induction was measured (FIG. 12). […] This is consistent with earlier observations that Wnt1 belongs to a class of Wnts signaling through the E1E2 portion of to LRP5/6 (11, 52). The Dkk1 and sclerostin mutants show activities consistent with their binding to LRP6 (FIG. 12). Sclerostin Ile119Glu (“NXI” motif) is impaired relative to wild-type in its ability to inhibit Wnt1-driven signaling, as is Dkk1 Ile42Glu.
A general note: In a reporter assay the amount or activity of a reporter protein is the signal.

For the molecule “sclerostin: Sclerostin protein, Wnt pathway inhibitor, expressed in insect cells (LPNAIGR)”, the “binding to LRP6 E1E4 (in words)” value in assay [1] is “binds”. Also, the “inhibition of Wnt1-dependent signaling (reporter induction)” value (“inhibition of Wnt1-dependent signaling” below) in assay [2] was “strong inhibition”.
Take “Dkk1: Dickkopf 1 protein, Wnt pathway inhibitor, expressed in insect cells (NSNAIKN)”: the “inhibition of Wnt1-dependent signaling” value in assay [2] is given as “strong inhibition”.

B1: Dkk1 Ile42Glu (ligand, human, UniProt O94907 32-266, looked up)
chain: TLNSVLNSNAEKNLPPPLGGAAGHPGSAVSAAPGILYPGGNKYQTIDNYQPYPCAEDEECGTDEYCASPTRGGDAGVQICLACRKRRKRCMRHAMCCPGNYCKNGICVSSDQNHFRGEIEETITESFGNDHSTLDGYSRRTTLSSKMYHTKGQEGSVCLRSSDCASGLCCARHFWSKICKPVLKEGQVCTKHRRKGSHGLEIFQRCYCGEGLSCRIQKDHHQASNSSRLHTCQRH
notes: also called Dkk1 I42E
Regarding B1, in assay [1], the “binding to LRP6 E1E4 (in words)” value is given as “retain binding”. In addition, the “inhibition of Wnt1-dependent signaling” value in assay [2] is reported as “impaired”.

B2: Dkk1 K211E (ligand, human, UniProt O94907 32-266, looked up)
chain: B1 chain with E11I, K180E
notes: also called Dkk1 Lys211Glu
On to B2, for which the “binding to LRP6 E1E4 (in words)” value in assay [1] was “retain binding”. Further, in assay [2], the “inhibition of Wnt1-dependent signaling” value is “efficiently inhibits”.
